Measurements reported in patent CN112159469A (SHANGHAI PUBLIC HEALTH CLINICAL CT, dated 2021).
Numbering of substitutions follows the chain as printed.

B1: 单抗4L12 (antibody, V domains shown)
VH: EVQLVESGGGLVQPGGSLRLSCAASGITVSSNYMNWVRQAPGRGLEWVSLLYSGGSTYYADSVKGRFTISRDNSKNTLYLQMNSLRAEDTAVYYCARDLITYGMDVWGQGTTVTVSS
VL: AIQLTQSPSSLSASVGDRVTITCRASQGISSYLAWYQQKPGKAPKLLIYAASTLQSGVPSRFSGSGSGTDFTLTISSLQPEDFATYYCQQLNSYPPLTFGGGTKVEIK
B2: 单抗12F5 (antibody, V domains shown)
VH: B1 VH with V12I, I27F, N35S, R43K, L50V, L51I, Y58F, T101D
VL: B1 VL with A1D, S10F, D70E, L97Y, G101Q, V105L
B3: 单抗16L9 (antibody, V domains shown)
VH: EVQLVESGGGLIQPGGSLRLSCAASGFTVSSNYMSWVRQAPGKGLEWVSVIYSGGSTYYADSVKGRFTISRDNSENTLYLQMNSLRAEDTAVYYCARGEIQPYYYYGMDVWGQGTTVTVSS
VL: QSVLTQPPSASGSPGQSVTISCTGTSSDFGGYNSVSWYQQHPGKAPKLMIYEVSKRPSGVPDRFSGSKSGNTASLTVSGLQAEDEADYYCSSYAGSNNFDVFGTGTKVTVL
B4: 单抗3D13 (antibody, V domains shown)
VH: EVQLVESGGGLIQPGGSLRLSCAASGLTVSSNYMSWVRQAPGKGLEWVSVIYSGGSAFYADSVKGRFTISRDNSKNTLYLQMNSLRAEDTAVYYCARDLSSAGGMDVWGQGTTVTVSS
VL: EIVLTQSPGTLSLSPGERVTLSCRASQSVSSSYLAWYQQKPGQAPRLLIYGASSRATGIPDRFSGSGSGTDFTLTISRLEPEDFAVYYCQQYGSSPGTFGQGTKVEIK
B5: 单抗20E21 (antibody, V domains shown)
VH: B4 VH with I12F, W47C, A57T, F58Y, L99R, S100G, S101M, A102L, G103H
VL: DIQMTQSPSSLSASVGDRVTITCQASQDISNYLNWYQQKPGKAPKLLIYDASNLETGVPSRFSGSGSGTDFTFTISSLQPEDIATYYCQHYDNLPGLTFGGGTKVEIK
B6: 单抗10C2 (antibody, V domains shown)
VH: EVQLVESGGGLIQPGGSLRLSCAASGLTVSSNYMNWVRQAPGKGLEWVSVIYSGGSTYYADSVKGRFTISRDNSKNTLYLQMNSLRAEDTAVYYCARLLVATIRDFDYWGQGTLVTVSS
VL: not shown
B7: 单抗22H22 (antibody, V domains shown)
VH: B6 VH with G10A, N35T, L98G, L99Y, V100G, A101D, T102Y, I103E, R104N, D105Y
VL: AIQLTQSPSSLSASVGDRVTITCRASQGISSYLAWYQQKPGKAPKLLIYAASTLQGGVPSRFSGSGSGTDFTLTISSLQPEDFATYYCQHLWTFGQGTKVEIK

target: SARS-CoV-2病毒的S1蛋白的RBD (SARS-CoV-2, UniProt P0DTC2 319-541); assay: BLI (OctetRED96), antibody captured on AHC probe, RBD in solution from 100 nM in 3-fold dilutions, 1:1 global fit

Binder	Kd [nM]
B1	1.49
B2	2.22
B3	1.21
B4	4.17
B5	2.3
B6	3.36
B7	5.07
